Reference: article PMC7943567 (2021)

Experiments:
[1] = biological target: UG2 fusion of the MET-binding peptide aMD4 (human); assay: SPR
[2] = biological target: UG2 fusion of the MET-binding peptide aMD5 (human); assay: SPR
aMD4 (free peptide) = assay: SPR; value cited from earlier paper
aMD5 (free peptide) = assay: SPR; value cited from earlier paper
[3] = biological target: Fc proteins lasso-grafted with MET-binding peptides (SPR, Fig. 1c); assay: SPR; aMD4 grafted on Fc; divalent, not true 1:1 affinity
[4] = biological target: T1, Fc proteins lasso-grafted with PlxnB1-binding peptides (SPR, Fig. 1c); assay: SPR; PB1m7 grafted on Fc; divalent, not true 1:1 affinity
[5] = biological target: UG2-m6A9, single-chain tandem uteroglobin dimer grafted with the affinity-matured m6A9 peptide (human, UniProt P11684); assay: SPR
[6] = biological target: UG2 fusion of the PlxnB1-binding peptide PB1m7 (human); assay: SPR
[7] = biological target: UG2-m6, single-chain tandem uteroglobin dimer with the PB1m6 peptide fused between two UG monomers (human, UniProt P11684); assay: SPR
[8] = biological target: T1, Fc proteins lasso-grafted with …; assay: SPR; PB1m6A9 grafted on Fc; divalent, not true 1:1 affinity
PB1m6A9 (free peptide) = assay: SPR; value cited from earlier paper
PB1m7 (free peptide) = assay: SPR; value cited from earlier paper

B1: human MET ectodomain fragment (residues 1-931) with C-terminal biotin acceptor sequence (domain or fragment)
chain: ECKEALAKSEMNVNMKYQLPNFTAETPIQNVILHEHHIFLGATNYIYVLNEEDLQKVAEYKTGPVLEHPDCFPCQDCSSKANLSGGVWKDNINMALVVDTYYDDQLISCGSVNRGTCQRHVFPHNHTADIQSEVHCIFSPQIEEPSQCPDCVVSALGAKVLSSVKDRFINFFVGNTINSSYFPDHPLHSISVRRLKETKDGFMFLTDQSYIDVLPEFRDSYPIKYVHAFESNNFIYFLTVQRETLDAQTFHTRIIRFCSINSGLHSYMEMPLECILTEKRKKRSTKKEVFNILQAAYVSKPGAQLARQIGASLNDDILFGVFAQSKPDSAEPMDRSAMCAFPIKYVNDFFNKIVNKNNVRCLQHFYGPNHEHCFNRTLLRNSSGCEARRDEYRTEFTTALQRVDLFMGQFSEVLLTSISTFIKGDLTIANLGTSEGRFMQVVVSRSGPSTPHVNFLLDSHPVSPEVIVEHTLNQNGYTLVITGKKITKIPLNGLGCRHFQSCSQCLSAPPFVQCGWCHDKCVRSEECLSGTWTQQICLPAIYKVFPNSAPLEGGTRLTICGWDFGFRRNNKFDLKKTRVLLGNESCTLTLSESTMNTLKCTVGPAMNKHFNMSIIISNGHGTTQYSTFSYVDPVITSISPKYGPMAGGTLLTLTGNYLNSGNSRHISIGGKTCTLKSVSNSILECYTPAQTISTEFAVKLKIDLANRETSIFSYREDPIVYEIHPTKSFISGGSTITGVGKNLNSVSVPRMVINVHEAGRNFTVACQHRSNSEIICCTTPSLQQLNLQLPLKTKAFFMLDGILSKYFDLIYVHNPVFKPFEKPVMISMGNENVLEIKGNDIDPEAVKGEVLKVGNKSCENIHLHSEAVLCTVPNDLLKLNSELNIEWKQAISSTVLGKVIVQPDQNF
modifications: biotin on the biotin acceptor sequence (BirA-mediated)
- Kd [1]: 91.6 nM
- koff [1]: 0.004 s⁻¹
- Kd [2]: 211 nM
- koff [2]: 0.019 s⁻¹
- Kd (aMD4 (free peptide)): 2.4 nM
- koff (aMD4 (free peptide)): 0.003 s⁻¹
- Kd (aMD5 (free peptide)): 2.3 nM
- koff (aMD5 (free peptide)): 0.011 s⁻¹
- Kd [3]: 4.5 nM
- koff [3]: 0.0007 s⁻¹

B2: human PlxnB1 ectodomain fragment (residues 1-535) with C-terminal biotin acceptor sequence (domain or fragment)
chain: LQPLPPTAFTPNGTYLQHLARDPTSGTLYLGATNFLFQLSPGLQLEATVSTGPVLDSRDCLPPVMPDECPQAQPTNNPNQLLLVSPGALVVCGSVHQGVCEQRRLGQLEQLLLRPERPGDTQYVAANDPAVSTVGLVAQGLAGEPLLFVGRGYTSRGVGGGIPPITTRALWPPDPQAAFSYEETAKLAVGRLSEYSHHFVSAFARGASAYFLFLRRDLQAQSRAFRAYVSRVCLRDQHYYSYVELPLACEGGRYGLIQAAAVATSREVAHGEVLFAAFSSAAPPTVGRPPSAAAGASGASALCAFPLDEVDRLANRTRDACYTREGRAEDGTEVAYIEYDVNSDCAQLPVDTLDAYPCGSDHTPSPMASRVPLEATPILEWPGIQLTAVAVTMEDGHTIAFLGDSQGQLHRVYLGPGSDGHPYSTQSIQQGSAVSRDLTFDGTFEHLYVMTQSTLLKVPVASCAQHLDCASCLAHRDPYCGWCVLLGRCSRRSECSRGQGPEQWLWSFQPELGCLQ
modifications: biotin on the biotin acceptor sequence (BirA-mediated)
- Kd [4]: 61.4 nM
- koff [4]: 0.055 s⁻¹
- Kd [5]: 8.26 nM
- koff [5]: 0.0014 s⁻¹
- Kd [6]: 3250 nM
- koff [6]: 0.051 s⁻¹
- Kd [7]: 45.8 nM
- koff [7]: 0.0041 s⁻¹
- Kd [8]: 0.023 nM
- koff [8]: 0.0004 s⁻¹
- Kd (PB1m6A9 (free peptide)): 0.28 nM
- koff (PB1m6A9 (free peptide)): 0.0021 s⁻¹
- Kd (PB1m7 (free peptide)): 275 nM
- koff (PB1m7 (free peptide)): 0.01 s⁻¹
